Test results: the NTF2 design screens of Basanta et al. (2020)

Test: protease stability score; higher = more stable; yeast display proteolysis, trypsin and chymotrypsin;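 further: log10 excess protease needed over predicted unfolded state with 0 meaning unfolded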

| Sequence | protease stability score |
| --- | --- |
| DEEAMKRFQELLDVLRTGDENRAKKLMDENVHLLVGDKEINGRDHAAKTMAQTYREMRIEYKTVKRDVTNGVVHVRMRYVKEHNGTPNDRVVLVEVRFHNGRLKVLNRNEKD | 0.352 |
| DEEAMKVFEEIMRAIEQGDPDRIIENADEDVRFDVGDKRLHGREKAAKDLVDFLHHQRTHIRSYDTSVSGEKLTLDVDMVNQNNGNPNSKRYTVDAHVHNGKLKSVKETDDQ | -0.27 |
| DEEANDLFRQIQTAENDNNPDEITELFDENATFRVGDRVIKGREKYAHKVVENLQKWRFTWDRIDVKARNGHARVTIRMTFNVNGKPDSYQAVMHLQFSNGRVQEIHMDIDPRKAKELLK | 0.124 |
| DEEANEMAKSYLEAKTRGDPRSAKELADKDAEFVVGDKTYQGMDENSDNMRRERDEQRTKVKILHLDDRPNHAVIKYRVEVQTNGQPRTKNYELNLQYSNGKIKYVRVEDRK | -0.027 |
| DEEANKIAKKFQEALRKGDENRLKELVDPNVRMEYGDHSIHGREELEKDVRKKKRDMRVKITLDHMEDNGSEVTAKVRWTQEHNGTPDSTHFSARFDFTDGRLKHYDQNDSG | -0.009 |
| DEEANKNMKDMWRTGDWKQIAENADEDAHYQVGDKKFSGREQVQTFIELLQNRVDDQNIRDMEDKGNEIDIEFTVVINGRKLVLHATVQAHNGRVKSWTVKVTDRDDKRKLDEALR | 0.307 |
| DEEANKVAKKLWEAIDHGNKEQAKELADPNAKAHVGDKSIHGMDTFVTWIKEIFDTMSFEVRIEDMKVHNGRLSANVRATFDINGQPRHQQARFKMDIHNGKISKVVIEMPKEKWKTILR | 0.97 |
| DEEANKVIDRLLKAIKHNNPDQAQHNMDEDVRIRIGDQEINGREQAKKEIRKRNEKMRINIDEVTLNEHPNKVRIQYRYKVDVNGRPVRNSAHMEARVSNGKVKEIDVRVSEDQKRHEER | 0.018 |
| DEEAQELAERVFKALQTGDPDTLVKNMDPNVRLDVGDKKIQGREEAKKHADRLRHEQKVEYDSYEVRVHDGRVVVRLHWKFTVNGHPRTLTLTVEMKAHNGKVKHFSQRVPEDVLRKMKS | -0.049 |
| DEEAQEVVEDMLRAIDKGDEDQIRRNVDKDAKVKVGNHELHGREQIAKFLSKERNEIEQSFQYESVTVDGDKIKFQFEMSRNVNGKPMRVSAQAEADAHNGKIRHFKVNVDTDVERRIDS | -0.165 |
| DEEAQEVYHRLRKVLENNNPKEFEENVDKDVRFNIGDKRIHGREQASKDWKSRMEEQHRKITRVENQSHGNEFEVRAKVNYDHNGQPRQQDLSAHVVAENGKLKMATYEVRK | 0.018 |
| DEEAQKAAERVWKAIERGNEEELHRLIDPDVRIKVGDKDYHGREHYVESVVEIMTTIRFTIHRMEIKVSGERVIIEYHYEFSVNGQPDTMRVIVYMVAHNGKVKNIHVKMSPEKRDRFRE | 1.05 |
| DEEAQKHIQQMFHAIDHGNPEKVKELADPNVNIEVGDKRYHGMDTWVREIEKTKKEMRVSVEHVKVDDRNGRAKIDVIMNNEVNGKPVRDRKTATADVHNGKIKSLQYQFSEDQKKKDEG | -0.472 |
| DEEAQKHLREFFKNQETGDPDKLMEMVDENVHWQVGDKTIEGRDTMKQDFDRRRKELRYHVDIKKVNAHNGRIRARATFHNEHNGKPKSFQAIVVAVITNGRIKSIHVQKRQ | -0.037 |
| DEEAQKKVEEWERAIEHGNEQQARELADKDVRIEVGDQRVRGMEDIARTQVRKQREITRHVRRFDAHATGDKIRVELVFEVHHDGQPRHQKYELRMVMHNGRVHSVRVETRR | 0.412 |
| DEEAQKLLDMLRKAEQTGDEDRVRQLADEDVKVRIGDKVIHGREEWARHVRRERNEMRFKIQDLKVDVQGDHLSVKYTAHRDHNGQPQSDTYHYTLQMHNGRIKHLNVTEEK | -0.004 |
| DEEAQKQAEHLIRNLEQGNEDQIERLADPNARFQYGNKEINGREEMSTWVRRYKKQARLEIKSVSADAQGDKITVDVHFVIDINGRPSTMRVNVVMSIDNGSINHMVFEIDEEQEKELNK | 0.202 |
| DEEAQKQFEEFLDVLETGDPKRLQDNMDEDARVVIGDKTITGREEAAKEWHKIRQEISVEIKHVHMEAQGDKLNATLDVVWNVNGRPHRFKFVIIMDFHNGRIKQIEIRMDERHLKKLRT | 0.499 |
| DEEAQKRAEELIRILQTGDPDKLMEMFDKDAHATIGDQTVRGREDMRRRQKELKETMDVKLDITDVKVTGEKIDIRIKATFNYNGQPAEDTIVFIIQQHNGRVQRFEVRIDEDVLRQLKK | 0.184 |
